From patent US20260125472A1 (HEFEI TG IMMUNOPHARMA, published 2026)

Columns and labels:
PDL1 protein [1] = biological target: T1, PDL1 protein (UniProt Q9NZQ7 19-238); experiment: ELISA, coated PDL1 protein, OD450 [panel A]
T1 construct: Bought recombinant protein
Method: (§1) (3) PDL1 protein (purchased from Acro) was diluted to 2 μg/ml with PBS buffer, added to a 96-well plate at a volume of 100 μL/well, and placed at 4° C. overnight. The PBS buffer in the 96-well plate was aspirated, and the plate was washed 6 times with PBST (pH 7.2 PBS containing 0.10% Tween 20) buffer. Then, PBS/10% BSA was added at 200 μL/well and incubated at 37° C. for 2 h for blocking. The blocking solution was removed, and the plate was washed six times with PBST. Then, the to-be-tested bispecific antibodies serially diluted with PBST/0.05% BSA, Cross3×PDL1, Cross303×PDL1, Cross307×PDL1, Cross308×PDL1, Cross309×PDL1, Cross310×PDL1, Cross311×PDL1, Cross312×PDL1, Cross313×PDL1, Cross314×PDL1, Cross316×PDL1, Cross317×PDL1, Cross318×PDL1, Cross323×PDL1, Cross325×PDL1, Cross326×PDL1, and control IgG1LALA (purchased from Bio-Tech) were added at 100 μL/well, and incubated at 37° C. for 1 h. The reaction system was removed, and the plate was washed 6 times with PBST. Then, the cells were incubated at 37° C. for 1 h with HRP (horseradish peroxidase)-labeled anti-human secondary antibody (Fab specific) (purchased from Sigma) serially diluted with PBST/0.05% BSA at 100 μL/well. After the plate was washed six times with PBST, TMB (tetramethylbenzidine) was added at 80 μL/well and incubated at room temperature for 3 min. 4 M sulfuric acid was added at 80 μL/well to terminate the reaction. The absorbance was read at 450 nm using a microplate reader.

[2] = biological target: T2, PDL1 on A-375 melanoma cells, HCT-15 colorectal cancer cells and A549 lung cancer cells (UniProt Q9NZQ7 19-290, limits assumed); experiment: flow cytometry, A549 cells, MFI [panel B]
T2 construct: whole, on cells
Summary of the method: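 Cells were blocked with goat serum at 4° C for 30 min, then incubated with serially diluted bispecific antibodies or hIgG1LALA control at 4° C for 30 min. Bound antibody was detected with Alexa-647 anti-human IgG (4° C, 30 min, dark) and read by flow cytometry.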

[3] = biological target: T2, PDL1 on A-375 melanoma cells, HCT-15 …; experiment: flow cytometry, A-375 cells, binding ratio % [panel A]
Method: (2) The tumor cells were diluted to 2×10⁶/ml with PBS and added to a 1.5 ml EP tube at a volume of 100 μl/tube, and goat serum was added thereto at 10 μl/tube. The cells were blocked at 4° C. for 30 min. The serially diluted bispecific antibodies, Cross3×Trop2, Cross303×Trop2, Cross307×Trop2, Cross308×Trop2, Cross309×Trop2, Cross310×Trop2, Cross311×Trop2, Cross312×Trop2, Cross313×Trop2, Cross314×Trop2, Cross316×Trop2, Cross317×Trop2, Cross318×Trop2, Cross323×Trop2, Cross325×Trop2, Cross326×Trop2, and Cross3×PDL1, Cross303×PDL1, Cross307×PDL1, Cross308×PDL1, Cross309×PDL1, Cross310×PDL1, Cross311×PDL1, Cross312×PDL1, Cross313×PDL1, Cross314×PDL1, Cross316×PDL1, Cross317×PDL1, Cross318×PDL1, Cross323×PDL1, Cross325×PDL1, Cross326×PDL1, and control hIgG1LALA (purchased from Bio-Tech) were added and incubated at 4° C. for 30 min. 1 ml of PBS was added to the EP tube, followed by centrifugation at 3500 rpm for 5 min at 4° C. The supernatant was discarded, and the cells were washed again with PBS. After centrifugation, the supernatant was completely discarded, and the cells were resuspended with PBS at 100 μl/tube. Alexa-647-labeled goat anti-human IgG secondary antibody (purchased from Jackson lab) was added at 1 μl/tube and incubated at 4° C. in the dark for 30 min. The cells were washed twice with PBS, and the supernatant was completely discarded after centrifugation. The cells were resuspended with PBS at 200 μl/tube and assay was performed using the flow cytometry.

CD3E&D protein = biological target: T3, CD3E&D protein (UniProt P04234 22-105); experiment: ELISA, coated CD3E&D protein, OD450 [panel B]
T3 construct: Purchased from Acro; also called CD3 E&D antigens; CD3E&D antigen protein
Text: In this example, the binding properties of the CD3×Trop2 and CD3×PDL1 bispecific antibody (the production method and the amino acid sequences of the heavy and light chains were shown in Example 1) were detected by using ELISA. The CD3E&D, Trop2, or PDL1 protein was coated onto 96-well plates by inventors, and the strength of the signal after the addition of the antibody was used to determine the binding properties of the antibody and the corresponding protein.
(1) CD3E&D protein (purchased from Acro) was diluted to 2 μg/ml with PBS buffer, added to a 96-well plate at a volume of 100 μL/well, and placed at 4° C. overnight. The PBS buffer in the 96-well plate was aspirated, and the plate was washed 6 times with PBST (pH 7.2 PBS containing 0.1% Tween 20) buffer. Then, 200 μL/well PBS/10% BSA was added and incubated at 37° C. for 2 h for blocking. The blocking solution was removed, and the plate was washed 6 times with PBST. Then, the to-be-tested bispecific antibodies serially diluted with PBST/0.05% BSA, Cross3×Trop2, Cross303×Trop2, Cross307×Trop2, Cross308×Trop2, Cross309×Trop2, Cross310×Trop2, Cross311×Trop2, Cross312×Trop2, Cross313×Trop2, Cross314×Trop2, Cross316×Trop2, Cross317×Trop2, Cross318×Trop2, Cross323×Trop2, Cross325×Trop2, Cross326×Trop2, Cross3×PDL1, Cross303×PDL1, Cross307×PDL1, Cross308×PDL1, Cross309×PDL1, Cross310×PDL1, Cross311×PDL1, Cross312×PDL1, Cross313×PDL1, Cross314×PDL1, Cross316×PDL1, Cross317×PDL1, Cross318×PDL1, Cross323×PDL1, Cross325×PDL1, Cross326×PDL1, and control IgG1LALA (purchased from Bio-Tech) were added at 100 μL/well, and incubated at 37° C. for 1 h. The reaction system was removed, and the plate was washed 6 times with PBST. Then, the cells were incubated at 37° C. for 1 h with HRP (horseradish peroxidase)-labeled anti-human secondary antibody (Fab specific) (purchased from Sigma) diluted with PBST/0.05% BSA at 100 μL/well. After the plate was washed six times with PBST, 80 μL/well TMB (tetramethylbenzidine) was added and incubated at room temperature for 3 min. […] The absorbance was read at 450 nm using a microplate reader.

PDL1 protein [4] = biological target: T1, PDL1 protein; experiment: ELISA, coated PDL1 protein, OD450 [panel B]
Method: as §1

CD3 on CD8 T cells = biological target: T4, CD3 on CD8 T cells (Homo sapiens (Human), UniProt P07766 23-207); experiment: flow cytometry, CD8 T cells in PBMCs, binding ratio % [panel A]
T4 construct: Native CD3 complex on CD8 T cells among PBMCs; also called T cells (PBMCs gated with anti-human CD8 antibody)
Method: (1) PBMCs were diluted to 2×10⁶/ml with PBS and added to a 1.5 ml EP tube at 100 μl/tube, goat serum was added thereto at 10 μl/tube. The cells were blocked at 4° C. for 30 min. The serially diluted bispecific antibodies, Cross3×Trop2, Cross303×Trop2, Cross307×Trop2, Cross308×Trop2, Cross309×Trop2, Cross310×Trop2, Cross311×Trop2, Cross312×Trop2, Cross313×Trop2, Cross314×Trop2, Cross316×Trop2, Cross317×Trop2, Cross318×Trop2, Cross323×Trop2, Cross325×Trop2, Cross326×Trop2, Cross3×PDL1, Cross313×PDL1, Cross316×PDL1, Cross325×PDL1, and control hIgG1LALA (purchased from Bio-Tech) were added and incubated at 4° C. for 30 min. 1 ml of PBS was added to the EP tube, followed by centrifugation at 3500 rpm for 5 min at 4° C. The supernatant was discarded, and the system was washed again with PBS. After centrifugation, the supernatant was discarded, and the cells were resuspended with PBS at 100 μl/tube. 1 μl/tube Alexa-647-labeled goat anti-human IgG secondary antibody (purchased from Jackson lab) and 0.5 μl/tube PerCP-Cy5.5-labeled anti-human CD8 antibody were added and incubated at 4° C. in the dark for 30 min. The cells were washed twice with PBS. After centrifugation, the supernatant was discarded. The cells were resuspended with 200 μl/tube of PBS and assay is performed by flow cytometry.

T3 sequence (chain, as listed by the source limits assumed, chain 1 of 2): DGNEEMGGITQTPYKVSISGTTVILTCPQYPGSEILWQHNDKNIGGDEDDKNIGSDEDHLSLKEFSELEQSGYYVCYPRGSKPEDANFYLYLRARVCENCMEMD
T3 sequence (P04234 22-105 limits assumed, chain 2 of 2): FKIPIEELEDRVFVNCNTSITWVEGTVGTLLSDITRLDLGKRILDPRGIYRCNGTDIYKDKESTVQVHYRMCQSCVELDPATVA
T1 sequence (Q9NZQ7 19-238 limits assumed): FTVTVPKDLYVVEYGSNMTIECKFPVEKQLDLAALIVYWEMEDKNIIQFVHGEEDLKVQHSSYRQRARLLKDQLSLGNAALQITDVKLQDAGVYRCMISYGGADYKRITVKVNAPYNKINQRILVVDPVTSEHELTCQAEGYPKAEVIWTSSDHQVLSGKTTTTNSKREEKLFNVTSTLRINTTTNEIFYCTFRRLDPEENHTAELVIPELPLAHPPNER
T2 sequence (Q9NZQ7 19-290 limits assumed): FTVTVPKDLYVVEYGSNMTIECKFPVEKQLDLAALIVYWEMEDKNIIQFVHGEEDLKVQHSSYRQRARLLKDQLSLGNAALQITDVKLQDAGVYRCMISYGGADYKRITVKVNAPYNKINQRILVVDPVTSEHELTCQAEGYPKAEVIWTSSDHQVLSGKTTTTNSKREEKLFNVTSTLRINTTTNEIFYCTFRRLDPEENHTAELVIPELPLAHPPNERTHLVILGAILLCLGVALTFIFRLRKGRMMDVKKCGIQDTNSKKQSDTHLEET
T4 sequence (P07766 23-207 limits assumed): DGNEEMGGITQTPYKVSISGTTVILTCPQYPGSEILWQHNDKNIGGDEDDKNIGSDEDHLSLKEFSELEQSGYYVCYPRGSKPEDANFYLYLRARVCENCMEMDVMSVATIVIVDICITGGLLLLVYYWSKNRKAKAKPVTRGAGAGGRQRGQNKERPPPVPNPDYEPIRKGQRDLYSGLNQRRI

B1: Cross309×PDL1 (bispecific antibody, human IgG1, kappa, L234A L235A)
scFv: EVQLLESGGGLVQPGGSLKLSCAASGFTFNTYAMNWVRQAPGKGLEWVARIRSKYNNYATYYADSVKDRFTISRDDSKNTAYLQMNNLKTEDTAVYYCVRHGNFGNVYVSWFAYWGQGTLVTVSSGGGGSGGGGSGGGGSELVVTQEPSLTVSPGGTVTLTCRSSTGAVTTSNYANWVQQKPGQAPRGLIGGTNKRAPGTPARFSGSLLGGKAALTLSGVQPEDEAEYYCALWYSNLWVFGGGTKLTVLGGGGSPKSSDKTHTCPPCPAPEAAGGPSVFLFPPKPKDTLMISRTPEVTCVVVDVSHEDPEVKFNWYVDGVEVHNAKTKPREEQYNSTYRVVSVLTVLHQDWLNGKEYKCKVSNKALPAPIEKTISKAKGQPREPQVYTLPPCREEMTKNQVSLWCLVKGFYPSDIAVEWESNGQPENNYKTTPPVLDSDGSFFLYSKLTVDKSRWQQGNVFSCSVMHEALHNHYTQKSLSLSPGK
heavy: QVQLVQSGAEVKKPGASVKVSCKASGYSFTGYYMHWVRQAPGQGLEWIGRINPYNGATTYSQNFKDRATMTVDTSISTAYMELSRLRSDDTAVYYCVPTGMGYFLMDYWGQGTLVTVSSASTKGPSVFPLAPSSKSTSGGTAALGCLVKDYFPEPVTVSWNSGALTSGVHTFPAVLQSSGLYSLSSVVTVPSSSLGTQTYICNVNHKPSNTKVDKKVEPKSCDKTHTCPPCPAPEAAGGPSVFLFPPKPKDTLMISRTPEVTCVVVDVSHEDPEVKFNWYVDGVEVHNAKTKPREEQYNSTYRVVSVLTVLHQDWLNGKEYKCKVSNKALPAPIEKTISKAKGQPREPQVCTLPPSREEMTKNQVSLSCAVKGFYPSDIAVEWESNGQPENNYKTTPPVLDSDGSFFLVSKLTVDKSRWQQGNVFSCSVMHEALHNHYTQKSLSLSPGK
light: DIQLTQSPSFLSASVGDRVTITCKASQDVGSAVVWYQQKPGKAPKLLIYWASTRHTGVPSRFSGSGSGTEFTLTISSLQPEDFATYFCQQFTSYPTFGQGTKLEIKRTVAAPSVFIFPPSDEQLKSGTASVVCLLNNFYPREAKVQWKVDNALQSGNSQESVTEQDSKDSTYSLSSTLTLSKADYEKHKVYACEVTHQGLSSPVTKSFNRGEC
EC50 (read off the curve) (PDL1 protein [1]): ~0.2 µg/mL
EC50 (read off the curve) [2]: ~1 µg/mL
EC50 (read off the curve) [3]: ~0.4 µg/mL

B2: Cross318×PDL1 (bispecific antibody, human IgG1, kappa, L234A L235A)
scFv: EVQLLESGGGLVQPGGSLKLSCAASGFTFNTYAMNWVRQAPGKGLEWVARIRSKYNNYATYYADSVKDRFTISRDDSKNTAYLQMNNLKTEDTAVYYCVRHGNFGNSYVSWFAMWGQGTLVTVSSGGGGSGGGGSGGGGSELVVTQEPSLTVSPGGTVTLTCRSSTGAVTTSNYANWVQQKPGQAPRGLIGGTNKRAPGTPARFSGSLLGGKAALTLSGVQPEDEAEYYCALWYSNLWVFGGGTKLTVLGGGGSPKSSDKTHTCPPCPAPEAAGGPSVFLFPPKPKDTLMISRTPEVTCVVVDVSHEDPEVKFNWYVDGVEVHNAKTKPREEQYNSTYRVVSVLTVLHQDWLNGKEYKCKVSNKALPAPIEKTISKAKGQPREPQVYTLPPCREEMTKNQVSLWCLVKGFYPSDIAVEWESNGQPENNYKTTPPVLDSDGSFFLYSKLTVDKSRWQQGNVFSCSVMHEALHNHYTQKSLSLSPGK
heavy: B1 heavy
light: B1 light
EC50 (read off the curve) (CD3E&D protein): ~1 µg/mL
EC50 (read off the curve) [2]: ~1 µg/mL
EC50 (read off the curve) (PDL1 protein [4]): ~0.2 µg/mL

B3: Cross323×PDL1 (bispecific antibody, human IgG1, kappa, L234A L235A)
scFv: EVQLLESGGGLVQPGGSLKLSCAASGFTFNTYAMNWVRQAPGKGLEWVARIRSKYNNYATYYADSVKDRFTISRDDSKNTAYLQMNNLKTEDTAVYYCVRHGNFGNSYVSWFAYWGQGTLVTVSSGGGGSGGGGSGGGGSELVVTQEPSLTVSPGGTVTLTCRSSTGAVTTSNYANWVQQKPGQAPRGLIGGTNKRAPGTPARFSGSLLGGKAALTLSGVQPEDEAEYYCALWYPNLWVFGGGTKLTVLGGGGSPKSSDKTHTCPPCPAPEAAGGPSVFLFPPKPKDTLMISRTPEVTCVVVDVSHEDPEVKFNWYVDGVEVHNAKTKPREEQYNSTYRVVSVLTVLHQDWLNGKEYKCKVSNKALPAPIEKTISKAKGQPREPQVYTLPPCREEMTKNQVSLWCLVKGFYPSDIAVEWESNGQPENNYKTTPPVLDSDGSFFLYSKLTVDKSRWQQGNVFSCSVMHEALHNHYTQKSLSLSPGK
heavy: B1 heavy
light: B1 light
EC50 (read off the curve) (CD3E&D protein): ~1 µg/mL
EC50 (read off the curve) (PDL1 protein [4]): ~0.2 µg/mL

B4: Cross325×PDL1 (bispecific antibody, human IgG1, kappa, L234A L235A)
scFv: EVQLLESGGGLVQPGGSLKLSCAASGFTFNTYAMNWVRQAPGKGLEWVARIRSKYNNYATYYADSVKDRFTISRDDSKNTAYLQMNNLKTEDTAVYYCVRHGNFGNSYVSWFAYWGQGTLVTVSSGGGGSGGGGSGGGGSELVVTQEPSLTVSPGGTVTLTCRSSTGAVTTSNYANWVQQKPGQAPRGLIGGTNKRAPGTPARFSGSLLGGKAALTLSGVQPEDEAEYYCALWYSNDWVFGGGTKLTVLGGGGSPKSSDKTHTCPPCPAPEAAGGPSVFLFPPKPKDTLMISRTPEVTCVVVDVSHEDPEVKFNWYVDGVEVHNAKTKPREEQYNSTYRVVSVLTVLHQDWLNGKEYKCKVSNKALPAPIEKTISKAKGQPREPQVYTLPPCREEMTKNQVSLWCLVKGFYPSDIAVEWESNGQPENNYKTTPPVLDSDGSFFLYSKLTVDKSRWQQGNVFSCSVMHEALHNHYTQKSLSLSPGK
heavy: B1 heavy
light: B1 light
EC50 (read off the curve) (CD3E&D protein): ~0.7 µg/mL
EC50 (read off the curve) [2]: ~1 µg/mL
EC50 (read off the curve) (CD3 on CD8 T cells): ~0.4 µg/mL
EC50 (read off the curve) (PDL1 protein [4]): ~0.1 µg/mL
